In patent publication EP4328239A1 (dated 2024):
Positions count from the first letter of the chain named. Each block holds one binder with its values, some of them ahead of it.

How the values were obtained:
[1] = biological target: T1, MAGEA1 peptide on HLA-A*29:02 (human); assay: cytokine release
T1 peptide: LVGFLLLKY

[2] = biological target: T2, MAGEA1 peptide on HLA-A*29:02 (human); assay: cytokine release
T2 peptide: DLVGFLLLKY

[3] = biological target: T3, MAGEA1 peptide on HLA-B*07:02 (human); assay: cytokine release
T3 peptide: ARVRFFFPSL

[4] = biological target: T4, MAGEA1 peptide on HLA-B*07:02 (human); assay: cytokine release
T4 peptide: RVRFFFPSLR

[5] = biological target: T5, MAGEA1 peptide on HLA-B*44:03 (human); assay: killing
T5 peptide: KVADLVGFLL

[6] = biological target: T6, MAGEA1 peptide on HLA-B*44:03 (human); assay: cytokine release
T6 peptide: VADLVGFLL

[7] = biological target: T7, MAGEA1 peptide on HLA-B*44:03 (human); assay: cytokine release
T7 peptide: ADLVGFLLLK

[8] = biological target: T8, MAGEA1 peptide on HLA-B*57:03 (human); assay: cytokine release
T8 peptide: VADLVGFLL

[9] = biological target: T9, MAGEA1 peptide on HLA-B*57:03 (human); assay: cytokine release
T9 peptide: KVADLVGFL

[10] = biological target: T10, MAGEA1 peptide on HLA-A*03:01 (human); assay: cytokine release
T10 peptide: SLFRAVITKK

[11] = biological target: T11, MAGEA1 peptide on HLA-A*03:01 (human); assay: cytokine release
T11 peptide: ESLFRAVITK

[12] = biological target: T12, MAGEA1 peptide on HLA-A*03:01 (human); assay: cytokine release
T12 peptide: LFRAVITKK

[13] = biological target: T13, MAGEA1 peptide on HLA-B*07:02 (human); assay: luciferase kill assay, 18 h; TCR-transduced CD8+ T cells against K562-HLA-B0702-MAGE-A1, cells that express the antigen (full-length MAGEA1); full-length, on cells
T13 peptide: RVRFFFPSL

[14] = biological target: T14, MAGEA1 peptide on HLA-B*44:03 (human); assay: cytokine release
T14 peptide: AETSYVKVL

[15] = biological target: T15, MAGEA1 peptide on HLA-B*44:03 (human); assay: cytokine release
T15 peptide: AETSYVKVLE

[16] = biological target: T16, MAGEA1 peptide on HLA-B*44:03 (human); assay: cytokine release
T16 peptide: ALAETSYVKV

[17] = biological target: T17, MAGEA1 peptide on HLA-B*44:03 (human); assay: luciferase kill assay, 18 h; TCR-transduced CD8+ T cells against K562-HLA-B4403-MAGE-A1, cells that express the antigen (full-length MAGEA1); two donors; full-length, on cells
T17 peptide: LAETSYVKVL

[18] = biological target: T18, MAGEA1 peptide on HLA-A*02:01 (human); assay: cytokine release
T18 peptide: VKVLEYVIKV

[19] = biological target: T19, MAGEA1 peptide on HLA-A*02:01 (human); assay: cytokine release
T19 peptide: KVLEYVIKVS

[20] = biological target: T20, MAGEA1 peptide on HLA-A*02:01 (human); assay: luciferase kill assay, 18 h; TCR-transduced CD8+ T cells against K562-HLA-A0201-MAGE-A1, cells that express the antigen (full-length MAGEA1); full-length, on cells
T20 peptide: KVLEYVIKV

[21] = biological target: T21, MAGEA1 peptide on HLA-B*44:03 (human); assay: killing
T21 peptide: EEGPSTSCI

[22] = biological target: T22, MAGEA1 peptide on HLA-A*26:01 (human); assay: cytokine release
T22 peptide: EVYDGREHSA

binding result [1]: recognises
binding result [2]: recognises
B1: TCR4 (TCR, V domains shown)
Valpha: AQSVTQLGSHVSVSEGALVLLRCNYSSSVPPYLFWYVQYPNQGLQLLLKYTSAATLVKGINGFEAEFKKSETSFHLTKPSAHMSDAAEYFCAVSNSGNTPLVFGKGTRLSVIA
Vbeta: AAGVIQSPRHLIKEKRETATLKCYPIPRHDTVYWYQQGPGQDPQFLISFYEKMQSDKGSIPDRFSAQQFSDYHSELNMSSLELGDSALYFCASSSTTGDGYTFGSGTRLTVV

binding result [3]: recognises
binding result [4]: recognises
B2: TCR23 (TCR, V domains shown)
Valpha: AQKVTQAQTEISVVEKEDVTLDCVYETRDTTYYLFWYKQPPSGELVFLIRRNSFDEQNEISGRYSWNFQKSTSSFNFTITASQVVDSAVYFCALSVTYTGNQFYFGTGTSLTVIP
Vbeta: DSGVTQTPKHLITATGQRVTLRCSPRSGDLSVYWYQQSLDQGLQFLIQYYNGEERAKGNILERFSAQQFPDLHSELNLSSLELGDSALYFCASSVQGQGTDTQYFGPGTRLTVL

binding result [6]: recognises
binding result [7]: recognises
B3: TCR6 (TCR, V domains shown)
Valpha: QKEVEQNSGPLSVPEGAIASLNCTYSDRGSQSFFWYRQYSGKSPELIMFIYSNGDKEDGRFTAQLNKASQYVSLLIRDSQPSDSATYLCAVSSNTGKLIFGQGTTLQVKP
Vbeta: DAGVIQSPRHEVTEMGQEVTLRCKPISGHNSLFWYRQTMMRGLELLIYFNNNVPIDDSGMPEDRFSAKMPNASFSTLKIQPSEPRDSAVYFCASKWGQGAGDTQYFGPGTRLTVL
binding result [5]: recognises

binding result [8]: recognises
binding result [9]: recognises
B4: TCR1 (TCR, V domains shown)
Valpha: GNSVTQMEGPVTLSEEAFLTINCTYTATGYPSLFWYVQYPGEGLQLLLKATKADDKGSNKGFEATYRKETTSFHLEKGSVQVSDSAVYFCALSGGGSYIPTFGRGTSLIVHP
Vbeta: EAGVAQSPRYKIIEKRQSVAFWCNPISGHATLYWYQQILGQGPKLLIQFQNNGVVDDSQLPKDRFSAERLKGVDSTLKIQPAKLEDSAVYLCASSSPGQLNTEAFFGQGTRLTVV

binding result [10]: recognises
binding result [11]: recognises
binding result [12]: recognises
B5: TCR22 (TCR, V domains shown)
Valpha: SQQGEEDPQALSIQEGENATMNCSYKTSINNLQWYRQNSGRGLVHLILIRSNEREKHSGRLRVTLDTSKKSSSLLITASRAADTASYFCATDEGGAQKLVFGQGTRLTINP
Vbeta: DVKVTQSSRYLVKRTGEKVFLECVQDMDHENMFWYRQDPGLGLRLIYFSYDVKMKEKGDIPEGYSVSREKKERFSLILESASTNQTSMYLCATVGRGEDRGEQFFGPGTRLTVL

binding result [3]: recognises
binding result [4]: recognises
B6: TCR18.2 (TCR, V domains shown)
Valpha: GQQVMQIPQYQHVQEGEDFTTYCNSSTTLSNIQWYKQRPGGHPVFLIQLVKSGEVKKQKRLTFQFGEAKKNSSLHITATQTTDVGTYFCANRDNYGQNFVFGPGTRLSVLP
Vbeta: EAQVTQNPRYLITVTGKKLTVTCSQNMNHEYMSWYRQDPGLGLRQIYYSMNVEVTDKGDVPEGYKVSRKEKRNFPLILESPSPNQTSLYFCASTRTGTLPEAFFGQGTRLTVV
EC50 killing capacity (E:T ratio at which 50% of target cells were killed) [13]: 20 E:T ratio

binding result [3]: recognises
binding result [4]: recognises
B7: TCR18.1 (TCR, V domains shown)
Valpha: B6 Valpha
Vbeta: EAQVTQNPRYLITVTGKKLTVTCSQNMNHEYMSWYRQDPGLGLRQIYYSMNVEVTDKGDVPEGYKVSRKEKRNFPLILESPSPNQTSLYFCASSRTSGISYEQYFGPGTRLTVT

binding result [14]: recognises
binding result [15]: recognises
binding result [16]: recognises
B8: TCR5 (TCR, V domains shown)
Valpha: GQQLNQSPQSMFIQEGEDVSMNCTSSSIFNTWLWYKQEPGEGPVLLIALYKAGELTSNGRLTAQFGITRKDSFLNISASIPSDVGIYFCAGLRDNYGQNFVFGPGTRLSVLP
Vbeta: DGGITQSPKYLFRKEGQNVTLSCEQNLNHDAMYWYRQDPGQGLRLIYYSQIVNDFQKGDIAEGYSVSREKKESFPLTVTSAQKNPTAFYLCASRVGGFEGYTFGSGTRLTVV
EC50 killing capacity (E:T ratio at which 50% of target cells were killed) [17]: 0.4 E:T ratio

binding result [3]: recognises
binding result [4]: recognises
B9: TCR19 (TCR, V domains shown)
Valpha: AQTVTQSQPEMSVQEAETVTLSCTYDTSENNYYLFWYKQPPSRQMILVIRQEAYKQQNATENRFSVNFQKAAKSFSLKISDSQLGDTAMYFCAFISGYSTLTFGKGTMLLVSP
Vbeta: B7 Vbeta with S94R, R95T, T96S, S97H, G98P, I99Q, S100T

binding result [18]: recognises
binding result [19]: recognises
B10: TCR20 (TCR, V domains shown)
Valpha: QKEVEQNSGPLSVPEGAIASLNCTYSDRGSQSFFWYRQYSGKSPELIMFIYSNGDKEDGRFTAQLNKASQYVSLLIRDSQPSDSATYLCAVNAPRPGYSTLTFGKGTMLLVSP
Vbeta: DVKVTQSSRYLVKRTGEKVFLECVQDMDHENMFWYRQDPGLGLRLIYFSYDVKMKEKGDIPEGYSVSREKKERFSLILESASTNQTSMYLCASSLSMNTEAFFGQGTRLTVV
EC50 killing capacity (E:T ratio at which 50% of target cells were killed) [20]: 0.8 E:T ratio

binding result [10]: recognises
binding result [11]: recognises
binding result [12]: recognises
B11: TCR24 (TCR, V domains shown)
Valpha: KNQVEQSPQSLIILEGKNCTLQCNYTVSPFSNLRWYKQDTGRGPVSLTIMTFSENTKSNGRYTATLDADTKQSSLHITASQLSDSASYICVVSNNAGNMLTFGGGTRLMVKP
Vbeta: DAMVIQNPRYQVTQFGKPVTLSCSQTLNHNVMYWYQQKSSQAPKLLFHYYDKDFNNEADTPDNFQSRRPNTSFCFLDIRSPGLGDTAMYLCATSRESLGRDEQFFGPGTRLTVL

B12: TCR8 (TCR, V domains shown)
Valpha: GQNIDQPTEMTATEGAIVQINCTYQTSGFNGLFWYQQHAGEAPTFLSYNVLDGLEEKGRFSSFLSRSKGYSYLLLKELQMKDSASYLCAPSSNTGKLIFGQGTTLQVKP
Vbeta: DAGVIQSPRHEVTEMGQEVTLRCKPISGHNSLFWYRQTMMRGLELLIYFNNNVPIDDSGMPEDRFSAKMPNASFSTLKIQPSEPRDSAVYFCASSLPQETQYFGPGTRLLVL
binding result [21]: recognises

binding result [22]: recognises
B13: TCR2 (TCR, V domains shown)
Valpha: AQKITQTQPGMFVQEKEAVTLDCTYDTSDPSYGLFWYKQPSSGEMIFLIYQGSYDQQNATEGRYSLNFQKARKSANLVISASQLGDSAMYFCASREGSARQLTFGSGTQLTVLP
Vbeta: DVKVTQSSRYLVKRTGEKVFLECVQDMDHENMFWYRQDPGLGLRLIYFSYDVKMKEKGDIPEGYSVSREKKERFSLILESASTNQTSMYLCASDSADTQYFGPGTRLTVL
